The supplement of paper PMC7877785
± gives the uncertainty stated by the source.

Experiment: self-splicing fitness, log relative to wild type (ln ratio); higher = more splicing; Tetrahymena group I intron in knt gene, E. coli kanamycin selection, DiMSum; sequences stand for … in CUCUCU…GGAGGGAAAAGUUAUCAGGCAUGCACCUGGUAGCUAGUCUUUAAACCAAUAGAUUGCAUCGGUUUAAAAGGCAAGACCGUCAAAUUGCGGGAAAGGGGUCAACAGCCGUUCAGUACCAAGUCUCAGGGGAAACUUUGAGAUGGCCUUGCAAAGGGUAUGGUAAUAAGCUGACGGACAUGGUCCUAACCACGCAGCCAAGUCCUAAGUCAACAGAUCUUCUGUUGAUAUGGAUGCAGUUCACAGACUAAAUGUCGGUCGGGGAAGAUGUAUUCUUCUCAUAAGAUAUAGUCGGACCUCUCCUUAAUGGGAGCUAGCGGAUGAAGUGAUGCAACACUGGAGCCGCUGGGAACUAAUUUGUAUGCGAAAGUAUAUUGAUUAGUUUUGGAGUACUCGUGGUCG
Method in brief: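 Library with all eight P1ex-region intron nucleotides randomised, intron inside the knt kanamycin-resistance gene on pET-22b(+), in E. coli BL21(DE3). Cells grew overnight at 37°C or 30°C on LB agar with or without 25 μg/mL kanamycin (plus 100 μg/mL carbenicillin, 50 μM IPTG, 0.2% rhamnose), in six replicate transformations. Pooled colonies were amplicon-sequenced on Illumina HiSeq 2500. DiMSum fitness is the error-weighted combination of wild-type-normalised replicate fold changes, kanamycin versus none.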

Row | Sequence | self-splicing fitness (ln) (30 °C) | self-splicing fitness (ln) (37 °C)
1 | AGCGAGCAAUAUUACGCGUU | -3.19 ± 0.27 | -2.79 ± 0.32
2 | AGCGAGCAAUAUUACGCUUG | -3.61 ± 0.15 | -1.69 ± 0.15
3 | AGCGAGCAAUAUUACGGAGA | -2.52 ± 0.26 | -2.14 ± 0.3
4 | AGCGAGCAAUAUUACGGGCA | -0.63 ± 0.061 | -0.562 ± 0.075
5 | AGCGAGCAAUAUUACGGGGU | -3.54 ± 0.22 | -1.59 ± 0.19
6 | AGCGAGCAAUAUUACGGUCU | -1.42 ± 0.1 | -0.715 ± 0.15
7 | AGCGAGCAAUAUUACGGUUC | -2.18 ± 0.24 | -2.32 ± 0.3
8 | AGCGAGCAAUAUUACGUACC | -0.987 ± 0.18 | -0.589 ± 0.19
9 | AGCGAGCAAUAUUACGUCAU | -3.13 ± 0.21 | -1.88 ± 0.2
10 | AGCGAGCAAUAUUACGUCGG | -3.45 ± 0.32 | -2.08 ± 0.25
11 | AGCGAGCAAUAUUACGUGCA | -1.78 ± 0.14 | -1.21 ± 0.14
12 | AGCUAGCAAUAUUACGAACC | -0.602 ± 0.14 | -0.082 ± 0.14
13 | AGCUAGCAAUAUUACGAACG | -0.938 ± 0.19 | -1.61 ± 0.18
14 | AGCUAGCAAUAUUACGAAUC |  | -1.56 ± 0.28
15 | AGCUAGCAAUAUUACGAGGU | -2.73 ± 0.14 | -1.31 ± 0.13
16 | AGCUAGCAAUAUUACGAUGU | -1.79 ± 0.096 | -0.235 ± 0.13
17 | AGCUAGCAAUAUUACGCCAG | -3.78 ± 0.36 | -2.27 ± 0.35
18 | AGCUAGCAAUAUUACGCCCU | -0.747 ± 0.13 | 0.627 ± 0.15
19 | AGCUAGCAAUAUUACGCCGA | -1.4 ± 0.4 | 
20 | AGCUAGCAAUAUUACGCGCA | -0.216 ± 0.095 | 0.0846 ± 0.13
21 | AGCUAGCAAUAUUACGCGGC | -3.24 ± 0.32 | -1.99 ± 0.38
22 | AGCUAGCAAUAUUACGCUAA | -1.97 ± 0.18 | -1.21 ± 0.12

Row | Sequence | self-splicing fitness (ln) (30 °C) | self-splicing fitness (ln) (37 °C)
23 | AGCUAGCAAUAUUACGCUAG | -3.02 ± 0.21 | -2.23 ± 0.22
24 | AGCUAGCAAUAUUACGCUUC | -3.25 ± 0.3 | -2.65 ± 0.28
25 | AGCUAGCAAUAUUACGGAGU | -2.94 ± 0.22 | -2.18 ± 0.24
26 | AGCUAGCAAUAUUACGGAUU | -1.3 ± 0.097 | -1 ± 0.13
27 | AGCUAGCAAUAUUACGGGGC | -3.25 ± 0.19 | -2.5 ± 0.21
28 | AGCUAGCAAUAUUACGGGUC | -2.59 ± 0.17 | -1.7 ± 0.15
29 | AGCUAGCAAUAUUACGGGUG | -1.04 ± 0.068 | -0.416 ± 0.087
30 | AGCUAGCAAUAUUACGUACG | -1.85 ± 0.07 | -1.21 ± 0.081
31 | AGCUAGCAAUAUUACGUCAC |  | -2.69 ± 0.29
32 | AGCUAGCAAUAUUACGUCGU | -1.38 ± 0.1 | -1.4 ± 0.14
33 | AGCUAGCAAUAUUACGUGAC | -3.94 ± 0.18 | -1.26 ± 0.13
34 | AGCUAGCAAUAUUACGUGUC | -3.35 ± 0.18 | -1.63 ± 0.14
35 | AGCUAGCAAUAUUACGUUUU | -2.36 ± 0.14 | -2.18 ± 0.16
36 | AGGAAGCAAUAUUACGAACC | -0.283 ± 0.29 | -0.131 ± 0.3
37 | AGGAAGCAAUAUUACGACAC | -1.94 ± 0.12 | -1.74 ± 0.12
38 | AGGAAGCAAUAUUACGACUU | 0.00163 ± 0.064 | -0.239 ± 0.084
39 | AGGAAGCAAUAUUACGAGAU | -4.23 ± 0.26 | -1.1 ± 0.13
40 | AGGAAGCAAUAUUACGAGCA | -1.91 ± 0.17 | -1.7 ± 0.17
41 | AGGAAGCAAUAUUACGAUAA | -1.9 ± 0.21 | -1.33 ± 0.29
42 | AGGAAGCAAUAUUACGAUGA | -0.649 ± 0.13 | -0.773 ± 0.17
43 | AGGAAGCAAUAUUACGCGAG | -1.55 ± 0.13 | -1.31 ± 0.15
